Results on 4 molecules are retold here after patent publication US20220204611A1 (Amgen, published 2022).

Positions count from the first letter of the chain named.

The target in test [1] is T1, human TREM2 on cells (human, UniProt Q9NZC2 19-230).
T1 sequence: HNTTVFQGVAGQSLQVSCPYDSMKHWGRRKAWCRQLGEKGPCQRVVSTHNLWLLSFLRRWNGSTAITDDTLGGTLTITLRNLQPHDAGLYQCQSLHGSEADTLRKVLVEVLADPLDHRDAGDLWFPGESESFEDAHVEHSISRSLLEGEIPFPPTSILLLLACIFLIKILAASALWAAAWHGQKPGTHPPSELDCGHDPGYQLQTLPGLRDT
Briefly: cell-based or functional assay.

In test [2] the target is T1, human TREM2 on cells. Briefly: cell-based or functional assay. The source holds these as a separate data set.
Test [3] addresses T2, recombinant soluble human TREM2 protein (human TREM2 ECD-FlagHis) (human, UniProt Q9NZC2 19-174).
T2 sequence: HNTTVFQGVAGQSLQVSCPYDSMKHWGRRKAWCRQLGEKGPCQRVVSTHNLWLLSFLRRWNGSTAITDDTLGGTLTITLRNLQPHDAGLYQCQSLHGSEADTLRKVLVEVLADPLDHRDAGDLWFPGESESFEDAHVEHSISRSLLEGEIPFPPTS
Briefly: Octet BLI binning; competitor: load Ab 4C5. How it is done:
(§1) Each of sixteen different anti-TREM2 antibodies produced from hybridomas were quantitated and loaded onto one of the anti-human Fc sensors at 5 μg/mL for 2 minutes (“Load Antibody”). The sensor was then blocked with 100 μg/mL of an irrelevant human IgG2 antibody for 5 minutes. […] Next, each of the sixteen different anti-TREM2 antibodies (“Sandwich Antibody”) was added to the sensor at 5 μg/mL and allowed to bind for 5 minutes. All assay buffers contained 10 mM Tris (pH 7.6), 0.1% Triton X-100, 150 mM NaCl, 1 mM CaCl₂, and 1 mg/mL BSA. The assay was conducted at 25° C. Experimental kinetic results were fit to a 1:1 binding model.
(§2) However, if addition of the sandwich antibody produces a binding event, then the sandwich antibody binds to a different epitope on human TREM2 than the load antibody and the two antibodies are categorized into different epitope bins.
For orientation: BLI is a label-free optical method that tracks binding on a fibre tip over time.

Test [4] concerns the target T2, recombinant soluble human TREM2 protein …. The test is described as follows: Octet BLI binning; competitor: load Ab 10E3. How it is done:
as §1, §2

For test [5] the target is unchanged. Briefly: Octet BLI binning; competitor: load Ab 24G6. How it is done: as §1, §2
The target is the same in test [6]. The test is described as follows: Octet BLI binning; competitor: load Ab 26F2. How it is done:
as §1, §2

The target is the same in test [7]. Briefly: Octet BLI binning; competitor: load Ab 32E3. How it is done:
as §1, §2

The target is the same in test [8]. The test is described as follows: Octet BLI binning; competitor: load Ab 4G10. How it is done: as §1, §2
Test [9] has the same target. The test is described as follows: Octet BLI binning; competitor: load Ab 25F12. How it is done: as §1, §2
Test [10] shares this target. Briefly: Octet BLI, antibody on anti-human Fc sensor, 25 C. How it is done:
(§3) To quantitate the binding affinity of agonist antibodies for human TREM2, association and dissociation rate constants as well as the equilibrium dissociation constant were determined using anti-human Fc (Kinetic) sensors on an Octet® HTX instrument (Pall ForteBio). Agonist anti-TREM2 antibodies were made up in DMEM null media, 250 μL at 10 μg/mL. The, 250 uL of assay buffer (10 mM Tris (pH 7.6), 0.1% Triton X-100, 150 mM NaCl, 1mM CaCl₂, and 1 mg/mL BSA) was added to the antibody solutions to a final volume of 500 μL and final antibody concentration of 5 μg/mL. The anti-human Fc sensor was pre-incubated in 200 μL of the assay buffer for a minimum of 10 minutes. The sensor was then regenerated for 5 seconds in 10 mM glycine pH 1.5. Test agonist anti-TREM2 antibodies were loaded onto the sensor for 2 minutes, and baseline measurements were taken for 2 minutes. […] The recombinant TREM2 proteins were allowed to associate with the antibody-loaded sensor for 10 minutes, and then dissociation was measured for 10 minutes. The assay was conducted at 25° C. Experimental kinetic results were globally fit to a 1:1 binding model in order to determine the association and dissociation rate constants as well as the equilibrium dissociation constant.

For test [11], the target named is T3, recombinant soluble cynomolgus TREM2 protein (cynomolgus TREM2 extracellular domain coupled to a Flag/His tag) (cynomolgus, UniProt A0A2K5UY34 49-204).
T3 construct: extracellular domain; also called Cyno TREM2
T3 sequence: T2 sequence with A10E, W60R, L89F, F125V
The test is described as follows: Octet BLI, antibody on anti-human Fc sensor, 25 C. How it is done: as §3

Test [12] concerns the target T4, soluble human TREM2 protein (TREM2 ECD-huIgG1 Fc fusion protein) (human, UniProt Q9NZC2 19-174, biotinylated).
T4 construct: also called biotinylated soluble human TREM2 protein
T4 sequence: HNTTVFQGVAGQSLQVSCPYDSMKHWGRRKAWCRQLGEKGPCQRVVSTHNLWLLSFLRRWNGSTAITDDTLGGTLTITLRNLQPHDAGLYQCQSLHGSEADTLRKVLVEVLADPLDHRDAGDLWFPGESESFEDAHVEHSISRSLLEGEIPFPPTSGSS
The test is described as follows: ELISA, hybridoma supernatant on captured biotinylated TREM2 ECD-Fc. (In general: An ELISA detects its analyte on a solid surface through an enzyme-linked reagent.)

Test [13] has as its target T2, recombinant soluble human TREM2 protein …. Briefly: Octet BLI binning; competitor: load Ab 5E3. How it is done: as §1, §2
Test [14] has the same target. Briefly: Octet BLI binning; competitor: load Ab 6E7. How it is done:
as §1, §2

The target is the same in test [15]. The test is described as follows: Octet BLI binning; competitor: load Ab 13E7. How it is done: as §1, §2
The target is the same in test [16]. The test is described as follows: Octet BLI binning; competitor: load Ab 16B8. How it is done: as §1, §2
The target is the same in test [17]. Briefly: Octet BLI binning; competitor: load Ab 24F4. How it is done: as §1, §2
For test [18] the target is unchanged. Briefly: Octet BLI binning; competitor: load Ab 24A10. How it is done:
as §1, §2

The target is the same in test [19]. The test is described as follows: Octet BLI binning; competitor: load Ab 26A10. How it is done: as §1, §2
Test [20] has the same target. Briefly: Octet BLI binning; competitor: load Ab 26C10. How it is done:
as §1, §2

Test [21] has the same target. Briefly: Octet BLI binning; competitor: load Ab 33B12. How it is done: as §1, §2

B1: 4C5 (antibody, V domains shown)
VH: EVQLVQSGAEVKKPGESLKISCKGSGHSFTNYWIAWVRQMPGKGLEWMGIIYPGDSDTRYSPSFQGQVTISADKSISTAYLQWSSLKASDTAVYFCARQRTFYYDSSGYFDYWGQGTLVTVSS
VL: DIQMTQSPSSVSASVGDRVTITCRASQGISNWLAWYQQKPGKAPKLLIYAASSLQVGVPLRFSGSGSGTDFTLTISSLQPEDFATYYCQQADSFPRNFGQGTKLEIK
notes: human IgG2 from hybridoma
What is called Kd is a measure of binding affinity in units of concentration. As for B1, the “pSyk EC50” value in [1] amounted to 0.18 nM. In test [2], the “Emax (% maximum activation compared to RnD antibody)” value stood at 265%. For the same molecule, the “pSyk EC50, differentiated THP-1 cells” value in test [2] stood at 1.72 nM. For the same molecule, the sandwich binding signal in test [3] was -0.014; in test [4] it was -0.005; in test [5], 0.268; in test [6] it was 0.31; in test [7] it was -0.01; in test [8], -0.011. In addition, the sandwich binding signal in test [9] is 0.265. Also, the values for the Kd in test [10] and in test [11] were 3.1 nM and 3.6 nM, respectively. Moreover, the “OD 450” value in [12] turned out to be 3.62 OD450.

B2: 26F2 (antibody, V domains shown)
VH: EVQLVESGGALVQPGGSLRLSCAASGFTFSSFGMSWVRQAPGKGLEWISYISSSSFTIYYADSVKGRFTISRDNAKNSFYLQMNSLRDEDTAVYFCAREGGITMVRGVSSYGMDVWGQGTTVTVSS
VL: not shown
notes: human IgG2 from hybridoma
As for B2, in [1], the “pSyk EC50” value worked out at 1.4 nM. The “Emax (% maximum activation compared to RnD antibody)” value in test [2] turned out to be 207%. In addition, the “pSyk EC50, differentiated THP-1 cells” value in test [2] came to 77.8 pM. Moreover, the sandwich binding signal is 0.368 in test [3]; -0.014 in test [13]; 0.523 in test [14]; 0.275 in test [4]; 0.294 in [15]; -0.003 in test [16]. Further, the sandwich binding signal is 0.477 in test [17]; 0.399 in test [5]; -0.008 in [6]; 0.411 in [7]; 0.334 in test [8]; 0.49 in test [18]. The sandwich binding signal is 0.366 in test [9], 0.009 in [19], -0.003 in test [20] and -0.009 in test [21]. The “OD 450” value in test [12] is 1.48 OD450.

B3: 4G10 (antibody, human IgG2, V domains shown)
VH: EVQLVQSGAEVKKPGESLKISCKGSGYSFPSYWIAWVRQMPGKGLEWMGIIYPGDSDTRYSPSFQGQVTISADKSISTAFLKWSSLKASDTAMYFCARQGIEVTGTGGLDVWGQGTTVTVSS
VL: DIQMTQSPSSLSASVGDRVTITCRASQGIRNDLGWYQQKPGNAPKRLIYAASSLPSGVPSRFSGSGSGPEFTLTISSLQPEDFATYYCLQHNSYPWTFGQGTKVEIT
notes: human IgG2 from hybridoma
Consider B3, for which the “pSyk EC50” value in test [1] was determined as 0.47 nM. In addition, the “Emax (% maximum activation compared to RnD antibody)” value in [2] was determined as 236%. For the same molecule, the “pSyk EC50, differentiated THP-1 cells” value in [2] was found to be 0.579 nM. The sandwich binding signal in test [3] is -0.018; in [4], -0.019; in [5], 0.184; in test [6], 0.18; in [7], -0.029; in test [8], -0.026. The sandwich binding signal in test [9] was 0.199. The Kd in test [10] came out at 3.3 nM; in [11], 1.7 nM. In addition, the “OD 450” value in test [12] was found to be 3.17 OD450.

B4: 32E3 (antibody, human IgG2, V domains shown)
VH: EVQLVQSGAEVKKPGESLKISCKGSGYSFTSYWIGWVRQMPGKGLEWMGIIYPGDSDTRYSPSFQGQVTISADKSISTAYLQWSTLKASDTAIYYCARHDIIPAAPGAFDIWGQGTMVTVSS
VL: EFVLTQSPGTLSLSPGERATLSCRASQIISSNYLAWYQQKPGQAPRLLIYSASSRATGIPDRFSGSGSGTDFTLTISRLEPEDFAVYYCQQFDSSPITFGRGTRLDIK
notes: human IgG2 from hybridoma
As to B4, the “pSyk EC50” value in [1] stood at 1.2 nM. The “Emax (% maximum activation compared to RnD antibody)” value in test [2] came out at 197%. Besides, in test [2], the “pSyk EC50, differentiated THP-1 cells” value came out at 1.25 nM. Moreover, the sandwich binding signal in [3] was -0.016; in [13], 0.176; in [14] it was -0.024; in [4], -0.023; in test [15], -0.027; in test [16], 0.12. Further, the sandwich binding signal in test [17] was -0.021; in [5], 0.126; in test [6], 0.143; in test [7], -0.01; in test [8] it was -0.02; in test [18], 0.162. The sandwich binding signal amounted to 0.154 in [9], 0.157 in test [19], 0.141 in test [20] and 0.132 in test [21]. Moreover, in test [12], the “OD 450” value amounted to 1.41 OD450.
